Laboratory results taken from PMC9353652 (Journal of the American Chemical Society, 2021).

Assays:
[1] = biological target: ATP-grasp ligase CdnC (Chryseobacterium gregarium DSM 19109); assay: SEC

Row | inhibition of chymotrypsin activity (protease inhibition assay) (chymotrypsin) | stoichiometry N [1] | Substance
1 | 70 nM |  | chryseoviridin (fully cyclized, full length core region of CdnA3) (peptide)
2 |  | 2 | ATP-grasp ligase CdnC (enzyme)
